Measured values reported in patent US20110076303A1.

Molecular target: Foxn1 having a Flag tag (expressed from the Foxn1 expression vector, CMV promoter, in mouse epidermal cells)
Assay: cell-based or functional assay

expression level of luciferase (reporter with a Foxn1 binding region upstream of an SV40 minimum promoter), relative to Foxn1 only = 1: 5 fold
Substance: AFF-4 having a C-Myc tag (expressed from the AFF-4 expression vector, CMV promoter, in mouse epidermal cells)
